Data published in paper PMC10646984 (Biomacromolecules, 2023).

T1: Gal-8 (Homo sapiens, UniProt O00214)
T1 construct: made in house; host or cells: Escherichia coli Rosetta 2(DE3)pLysS
T1 sequence (O00214 1-317): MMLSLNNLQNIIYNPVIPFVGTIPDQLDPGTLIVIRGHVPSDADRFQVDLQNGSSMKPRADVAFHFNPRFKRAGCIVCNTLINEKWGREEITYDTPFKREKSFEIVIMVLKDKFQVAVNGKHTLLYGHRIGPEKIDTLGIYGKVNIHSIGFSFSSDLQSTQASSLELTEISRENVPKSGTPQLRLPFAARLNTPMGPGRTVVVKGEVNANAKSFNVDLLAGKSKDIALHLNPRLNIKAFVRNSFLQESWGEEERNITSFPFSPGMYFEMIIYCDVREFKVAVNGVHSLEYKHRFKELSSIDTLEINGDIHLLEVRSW

T2: asialofetuin (ASF; a glycoprotein terminated with LacNAc moieties) (UniProt P12763 19-359, glycoprotein terminated with LacNAc moieties (desialylated glycans))
T2 construct: asialofetuin, the desialylated form of fetuin
T2 sequence (looked up): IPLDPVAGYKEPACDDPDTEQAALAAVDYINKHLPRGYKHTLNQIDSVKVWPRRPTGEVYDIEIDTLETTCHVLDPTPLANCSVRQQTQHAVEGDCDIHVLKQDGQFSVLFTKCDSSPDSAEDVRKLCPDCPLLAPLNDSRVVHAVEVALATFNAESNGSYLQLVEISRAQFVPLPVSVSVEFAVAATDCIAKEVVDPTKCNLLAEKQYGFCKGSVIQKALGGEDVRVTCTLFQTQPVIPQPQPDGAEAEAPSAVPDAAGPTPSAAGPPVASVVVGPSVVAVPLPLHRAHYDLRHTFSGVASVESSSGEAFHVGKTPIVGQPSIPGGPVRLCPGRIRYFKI


What was measured:
Gal-9 [1] = molecular target: T3, Gal-9 (Homo sapiens, UniProt O00182, A222P/DEL149-219); assay: competitive ELISA with immobilized asialofetuin (ASF), Gal-9; assay type: binding; conditions: 1 μM Gal-9, immobilized ASF, DMSO co-solvent
T3 construct: made in house; host or cells: Escherichia coli Rosetta 2(DE3)pLysS
T3 sequence (O00182 with tags, fused parts or gaps DEL149-219/A222P): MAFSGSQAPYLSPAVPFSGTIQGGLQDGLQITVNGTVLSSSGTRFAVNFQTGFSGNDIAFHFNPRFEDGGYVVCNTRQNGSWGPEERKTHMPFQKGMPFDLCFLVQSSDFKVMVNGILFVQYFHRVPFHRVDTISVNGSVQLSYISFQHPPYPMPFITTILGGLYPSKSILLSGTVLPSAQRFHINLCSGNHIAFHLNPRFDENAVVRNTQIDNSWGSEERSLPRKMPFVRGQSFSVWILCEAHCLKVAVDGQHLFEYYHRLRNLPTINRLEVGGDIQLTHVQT
Method: (§1) The inhibitory potential of prepared Lac-CS-DDMs toward Gal-1, Gal-3, Gal-8, and Gal-9 was determined using a competitive ELISA assay with immobilized asialofetuin (ASF; a glycoprotein terminated with LacNAc moieties).[41] ASF (0.1 μM in PBS, 50 μL/well) was coated in microtiter plates (Nunc Immuno Sorb, Thermo Fisher Scientific, USA) and incubated overnight. Then, the wells were washed with 3 × 250 μL of PBS buffer containing 0.05% Tween; this washing step followed each incubation step. The wells were then blocked with 2 mg/mL BSA in PBS buffer (250 μL/well) and incubated for 1 h. […] The reaction was stopped by adding 3 M HCl (50 μL per well), accompanied by a color shift to yellow as determined spectrophotometrically by an absorbance microplate reader (Sunrise Tecan Group Ltd., CH). […] A background value, as a mean of the negative control wells containing buffer instead of galectin/ligand, with an absorbance of ca. 0.05–0.075 was subtracted from the measured absorbances. The values of half maximal inhibitory constants (IC50) were calculated from the non-linear regression (dose–response inhibition-variable slope) of the sigmoidal curves using GraphPad Prism 7 (GraphPad Software, USA) from at least three independent experiments with at least two different galectin batches. […]

Gal-8 [2] = molecular target: T1, Gal-8; assay: competitive ELISA with immobilized asialofetuin (ASF), Gal-8; assay type: binding; conditions: 1 μM Gal-8, immobilized ASF, DMSO co-solvent
Method: as §1

Gal-1 = molecular target: T4, Gal-1 (Homo sapiens, UniProt P09382, C3S); assay: direct binding ELISA of galectin to immobilized ASF, Gal-1
T4 construct: made in house; host or cells: Escherichia coli Rosetta 2(DE3)pLysS
T4 sequence (P09382 whole entry C3S): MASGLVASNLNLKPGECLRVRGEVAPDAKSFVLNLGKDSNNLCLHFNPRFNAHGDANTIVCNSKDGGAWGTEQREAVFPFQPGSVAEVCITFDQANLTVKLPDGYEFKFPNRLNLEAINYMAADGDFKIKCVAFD

Gal-8 [3] = molecular target: T1, Gal-8; assay: direct binding ELISA of galectin to immobilized ASF, Gal-8
Gal-3 = molecular target: T5, Gal-3 (Homo sapiens, UniProt P17931); assay: direct binding ELISA of galectin to immobilized ASF, Gal-3
T5 construct: made in house; host or cells: Escherichia coli Rosetta 2(DE3)pLysS
T5 sequence (P17931 whole entry): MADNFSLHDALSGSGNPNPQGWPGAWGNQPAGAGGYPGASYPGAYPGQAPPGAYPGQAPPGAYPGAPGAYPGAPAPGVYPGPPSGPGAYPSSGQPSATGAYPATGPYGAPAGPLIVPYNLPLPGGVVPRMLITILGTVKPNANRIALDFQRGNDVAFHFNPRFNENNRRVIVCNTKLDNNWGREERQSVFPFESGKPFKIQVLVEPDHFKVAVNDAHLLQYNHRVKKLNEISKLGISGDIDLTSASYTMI

Gal-9 [4] = molecular target: T3, Gal-9; assay: direct binding ELISA of galectin to immobilized ASF, Gal-9
[5] = DLS hydrodynamic diameter of single components (galectins, Lac-CS-DDMs); assay type: physicochemical; conditions: single component 10 μM in PBS, 25 °C
Method: The hydrodynamic diameter of the nanoparticles of galectins, Lac-CS-DDMs, and their aggregates was measured by dynamic light scattering (DLS) using a Zetasizer Nano ZS (Malvern Instruments Ltd., UK) at 25 °C in Malvern disposable plastic microcuvettes (100 μL sample volume). The light scattered at 173° from the incident light was fitted to an autocorrelation function using the method of cumulants (Malvern Instruments Ltd., UK). Commercial sterile PBS was used for sample preparation. […] Mixtures of components were incubated for 90 min at room temperature. The samples were vortexed prior to measurements. The hydrodynamic diameters were determined from five independent repetitions (each 10–50 runs). Multimodal intensity-weighted particle size distribution was used for data analysis.
DLS experiments on the A series of Lac-CS-DDMs and G3-B-AcLac32 were performed to provide insight into the complexity of multivalent galectin/Lac-CS-DDM interactions (Table 2). Unlike ELISA assays that simulate competitive binding on the cell surface, DLS is a straightforward method to evaluate non-surface bound multivalent assemblies.[71] Thus, it is interesting to relate the data obtained by these two methods. Since the transformation of intensity-weighted size distribution to volume-weighted size distribution requires information on the refractive index and absorption of the formed particles and assumes their homogeneity and spherical shape,[72] all presented data come from the analysis of the multimodal intensity-weighted size distribution. As the scattering intensity correlates with the particle diameter to the sixth power, whereas the mass only to the third power, the abundance of larger particles is overestimated at the expense of the smaller ones with respect to the real sample composition, especially in the case of polydisperse samples with multiple size populations.[73] This means that, due to the presence of large aggregates, the particles smaller by orders of magnitude present in the sample may not be detected. Despite the above bottlenecks, we believe that using the size-to-intensity plot is the most appropriate as it is highly sensitive to a starting aggregation, which may be undetectable in the size-to-volume distribution, and it is well suited to compare results between different galectins and Lac-CS-DDM generations to address general differences and trends in their aggregation behavior.

[6] = molecular target: asialofetuin (ASF; a glycoprotein terminated with LacNAc moieties) (UniProt P12763); assay: ELISA; direct binding: ASF (0.1 μM in PBS) coated on the plate, serial dilution of the galectin in EPBS (2 mM EDTA in PBS), bound galectin detected with anti-His antibody-HRP
[7] = molecular target: T2, asialofetuin (ASF; a glycoprotein …); assay: as above; conditions: both partners purified

| Molecule | PI (polydispersity index) [5] | hydrodynamic diameter, aggregates >0.5 μm [5] | hydrodynamic diameter, small particles <50 nm (first fraction) [5] | intensity-weighted abundance, aggregates >0.5 μm [5] | intensity-weighted abundance, small particles <50 nm (first fraction) [5] | other results |
| --- | --- | --- | --- | --- | --- | --- |
| OC[C@H]1O[C@@H](O[C@H]2[C@H](O)[C@@H](O)C(O)O[C@@H]2CO)[C@H](O)[C@@H](O)[C@H]1O (mixture of isomers) [lactose] | – | – | – | – | – | IC50 (Gal-9 [1]): 1350 ± 440 µM; IC50 (Gal-8 [2]): 1680 ± 420 µM |
| ASF: asialofetuin, a glycoprotein terminated with LacNAc moieties, immobilized competitor in ELISA | – | – | – | – | – | Kd (Gal-1): 4.4 µM; Kd (Gal-8 [3]): 0.37 µM; Kd (Gal-3): 3.2 µM; Kd (Gal-9 [4]): 0.3 µM |
| Gal-1: recombinant human galectin-1, N-terminal His-tagged, C2S mutation | 0.4 | 1.2 ± 0.5 μm | 1.3 ± 0.1 nm | 32% | 47% | hydrodynamic diameter, small particles <50 nm (second fraction) [5]: 19.0 ± 6.0 nm; intensity-weighted abundance, small particles <50 nm (second fraction) [5]: 21% |
| Gal-3: recombinant human galectin-3, N-terminal His-tagged | 0.6 | 1.1 ± 0.1 μm | 7.9 ± 1.4 nm | 13% | 36% | hydrodynamic diameter, aggregates >0.1 μm [5]: 0.4 ± 0.1 μm; intensity-weighted abundance, aggregates >0.1 μm [5]: 40% |
| Gal-8: recombinant human galectin-8, N-terminal His-tagged, full-length peptide linker of 34 aa | 0.7 | 1.4 ± 0.3 μm | 5.4 ± 0.5 nm | 80% | 20% | – |
| Recombinant human galectin-1 (Gal-1) with mutation C2S, N-terminal His-tagged (natural protein) | – | – | – | – | – | Kd [6]: 4.4 µM |
| Recombinant human galectin-9 (Gal-9) with a truncated mutated peptide linker HPPYPMPF, N-terminal His-tagged (natural protein) | – | – | – | – | – | Kd [6]: 0.3 µM |
| Recombinant human galectin-8 (Gal-8) with a full-length peptide linker of 34 aa, N-terminal His-tagged (natural protein, UniProt O00214 1-317, looked up, galectin-8 (tandem repeat), human; contains a full-length peptide linker of 34 aa (3717 Da); ca. 36 kDa; cloned in pET-Duet1 (AscI/NotI); plasmid a gift from Prof; L. Elling; source: E. coli Rosetta 2(DE3)pLysS, purified (Ni-NTA); not shown: His tag, N-terminal, kept) MMLSLNNLQNIIYNPVIPFVGTIPDQLDPGTLIVIRGHVPSDADRFQVDLQNGSSMKPRADVAFHFNPRFKRAGCIVCNTLINEKWGREEITYDTPFKREKSFEIVIMVLKDKFQVAVNGKHTLLYGHRIGPEKIDTLGIYGKVNIHSIGFSFSSDLQSTQASSLELTEISRENVPKSGTPQLRLPFAARLNTPMGPGRTVVVKGEVNANAKSFNVDLLAGKSKDIALHLNPRLNIKAFVRNSFLQESWGEEERNITSFPFSPGMYFEMIIYCDVREFKVAVNGVHSLEYKHRFKELSSIDTLEINGDIHLLEVRSW | – | – | – | – | – | Kd [7]: 0.37 µM |
